{"source": "patent US11312781B2", "about": "“Antigen binding molecules that bind LIGHT” (Capella Bioscience Ltd., priority 2018, dated 2022)", "molecules": {"B1": {"name": "2E08: parental anti-membrane LIGHT antibody, VL SEQ ID NO 81, VH SEQ ID NO 85; chimeric IgG4 mAb (antibody, listed as Homo sapiens, V domains shown)", "VH": "QVQMKESGAELVRPGVSVKISCKGSGYTFTDYAIHWVKQSHAKTLEWIGVISTYYGDASYNQKFKGKATMTVDKSSSTAYMELARLTSDDSAIYYCARSRGEYGNYDAMDYWGQGTSVTVSS", "VL": "DIVLTQSPASLAVSLGQRATISCKASQSVDYDGDSYMNWYQQKPGQPPKLLIYAASNLESGIPARFSGSGSGTDFTLNIHPVEEEDAATYYCQQSNEDPLTFGAGTKLELK"}, "B2": {"name": "3A07: parental anti-membrane LIGHT antibody, VL SEQ ID NO 97, VH SEQ ID NO 101; chimeric IgG4 mAb (antibody, listed as Homo sapiens, V domains shown)", "VH": "QVQLQQSGAELVRPGAPVTLSCKASDYTFTDSEIHWVKQTPVHGLEWIGEIDPETGGTAYNQKFKGKATLTADKSSSTAYMELRSLTSEDSAVYYCSRETDYFFDYWGQGTTLTVSS", "VL": "ENVLTQSPAIMSASPGEKVTMTCSASSSVSYMYWYQQRPGSSPRLLIYDTSNLASGVPVRFSGSGSGTSYSLTISRMEAEDAATYYCQQWSSYPLTFGSGTKLEIK"}, "B3": {"name": "3C10: parental anti-membrane LIGHT antibody, VL SEQ ID NO 89, VH SEQ ID NO 93; chimeric IgG4 mAb (antibody, listed as Homo sapiens, V domains shown)", "VH": "EVQLQQSGAELVRPGASVTLSCKASDYTFTDSEIHWVKQTPVHGLEWIGEIDPETGGTAYNQKFKGKATLTADKSSSTAYMELRSLTSEDSAVYYCSRETDYFFDYWGQGTTLTVSS", "VL": "DVVMTQTPAIMSASPGEKVTMTCSASSSVSYMYWYQQKPGSSPRLLIYDTSNLASGVPVRFSGSGSGTSYSLTISRMEAEDAATYYCQQWSSYPLTFGAGTKLELK"}, "B4": {"name": "LTBR-Fc: LTBR-Fc receptor fusion protein (R&D Systems), positive control in alanine scanning (protein)", "chain": "SQPQAVPPYASENQTCRDQEKEYYEPQHRICCSRCPPGTYVSAKCSRIRDTVCATCAENSYNEHWNYLTICQLCRPCDPVMGLEEIAPCTSKRKTQCRCQPGMFCAAWALECTHCELLSDCPPGTEAELKDEVGKGNNHCVPCKAGHFQNTSSPSARCQPHTRCENQGLVEAAPGTAQSDTTCKNPLEPLPPEMSGTMLM", "modifications": "left off: a dimerising Fc or GST", "notes": "LTBR-Fc receptor fusion protein (R&D Systems), positive control in alanine scanning"}, "B5": {"name": "3B04_var16: deimmunised 3B04 IgG4 variant: 3B04_VL_4 (SEQ ID NO 33) + 3B04_VH_4 (SEQ ID NO 37) (antibody, listed as Homo sapiens, V domains shown)", "VH": "QVQLVQSGAEVKKPGASVKVSCKASGYTFTDYEMHWVRQAPGQGLEWMGEIDPETGDTAYAQKFQGRVTLTADKSTSTAYMELSSLRSEDTAVYYCSRETDYFFDYWGQGTLVTVSS", "VL": "DIQMTQSPSSLSASVGDRVTITCRASENIYGALNWYQQKPGKAPKLLIYGATNLAEGVPSRFSGSGSGRDYTLTISSLQPEDFATYYCQNVLTTPWTFGQGTKLEIKR"}}, "key": {"[1]": {"molecular_target": "T1, DcR3 binding to membrane LIGHT (EL4-LIGHT cells) (Homo sapiens, UniProt O43557)", "T1 construct": "expressed in transfected cells; host or cells: EL4 mouse lymphoma cells, stably transduced", "assay": "Competition binding of anti-membrane LIGHT antibodies with DcR3-His on EL4-LIGHT cells", "conditions": "mAb at up to 100 nM", "experimental": "DcR3 (TNFRSF6B) is a decoy receptor that competes with receptors for ligand binding. DcR3 can bind and neutralise LIGHT with high affinity and TL1A and FasL with lower affinity (Zhan C et al. Structure. 2011, 19:162-71 “Decoy strategies: the structure of TL1A:DcR3 complex”). Stably transduced LIGHT-expressing EL4 cells (mouse lymphoma cell line; EL4-LIGHT) were used for the flow cytometry-based competition-binding analysis.\nEL4-LIGHT cells (0.25×10^6) were preincubated with anti-membrane LIGHT mAbs (0-300 nM) for 15 min at 4° C. followed by incubation with DcR3-His tagged (1 nM, Creative BioMart; ref:TNFRSF6B-552H, lot:962512) for 30 min at 4° C. The samples were then incubated with mouse anti-histag antibody (diluted 1:500, Biolegend, cat. no. 652502) for 30 minutes at 4° C., followed by incubation with anti-mouse APC (dil 1:500, BDBiosciences, cat. no. 550826) for 30 minutes at 4° C. The tubes were washed three times after each of the detection antibody stages and flow cytometry analysis was performed. Specific mean fluorescence intensity (MFI) obtained from the binding of DcR3-His to LIGHT on EL4 cells were used to determine the levels of competition binding."}, "[2]": {"system": "wild type and mutated membrane LIGHT", "assay": "Alanine scanning mutagenesis of membrane LIGHT and flow cytometry (HEK293FF cells)", "assay_type": "binding, human", "excerpt": "The full length LIGHT gene was synthesized by GeneArt (ThermoFisher Scientific) and cloned into the mammalian expression vector pcDNA 3.1(+). The following Ala mutations were introduced into the LIGHT gene: 30 single amino acid alanine substitutions from F57A to E86A; 2 single amino acid alanine substitutions; G188A, R189A; one serine substitution, A190S; 17 single amino acid alanine substitutions; T191A to V207A and 10 four amino acid alanine substitutions, 60-63, 64-67, 68-71, 72-75, 76-79, 80-83, 84-87, 88-91, 92-95 and 96-99. Constructs were reconstituted according to manufacture instructions, using DEPC-treated and sterile filtered water. Competent TOP10 E. coli cells were transformed with 100 ng of each construct and a single colony from each construct was picked and used to inoculate 10 ml of LB/carb100/glu2% medium and grown overnight at 37° C., 200 rpm. The extraction of the construct DNA was performed using the Qiagen QIAprep Spin Miniprep Kit (250) and the concentration was determined by measuring the O.D. at 260 nm in a spectrophotometer.\nHEK293FF cells were cultured in Freestyle™293 expression medium (ThermoFisher scientific cat. no. 12338018) supplemented with 2 mM L-Glutamine. The day of transfection the cells were seeded in a 24-well plate at 0.6×10^6 cells/well. Lipofectamine 2000 (ThermoFisher scientific), 3 μl, was mixed with 50 μl OptiMEM medium (GIBCO) and then added to 50 μl Opti-MEM medium containing 3 ug plasmid DNA and incubated for 20 min at RT to form DNA-Lipofectamine 2000 complexes which were then added to the HEK293FF cells and incubated at 37° C., 5% CO2 for 24 hours. For each construct, in duplicate, 0.60×10^6 cells/well were used in a 96 well round bottom plate. Cells were centrifuged for 3 minutes at 300×g at 4° C., the supernatant discarded and the cells washed with 150 μl FACS buffer (0.5% FBS in phosphate buffered saline). This process was repeated 3 times. For each construct, […] cells/well were incubated with anti-LIGHT antibodies at the EC50 concentration and with positive controls of anti-LIGHT mAb MAB664 (R&D Systems), mAb F19 (EP2292663) or LTBR-Fc (R&D Systems), in a final volume of 50 μl/well for 30 min at 4° C., with shaking. The wells were washed 3 times as above and 50 μl/well of goat anti-human IgG FITC (1:1500 dilution in FACS buffer, SIGMA F9512-2ML) or goat anti-mouse APC (1/500 dilution in FACS buffer, BDBioscience 550826), as appropriate, was added to the wells and incubated for 30 min at 4° C. protected from the light, with shaking. The cells were then washed as above, resuspended in 100 μl of FACS buffer and binding of the antibodies to the constructs was measured using flow cytometry and a total of 10,000 cells were acquired for each sample. Controls of buffer and secondary antibody only as well as HEK293FF non transfected cells were also used.\nAll of the mAbs of this invention show a similar profile in that their epitope is located at amino acids 188-197 of LIGHT. […] The epitope of the mAbs of this invention defined by alanine scanning mutagenesis are residues 188-197 of LIGHT. This is visually depicted in FIG. 8 utilising a 3D visualisation of the LIGHT trimer from the crystal structure of LIGHT from Liu et al. (Structure 22: 1252-62; 2014). This would result in the mAbs binding to the “tip” of the LIGHT trimer and explaining the 1:1 binding. The impact of this epitope would result in […] less dosing of mAb 3B04 being required to neutralise membrane LIGHT compared to, for example, mAbs F19 and F23 (of EP2292663) which bind both soluble and membrane LIGHT equally and bind LIGHT in the ratio 3:1."}, "[3]": {"system": "DSS-induced colitis in hu-NOG mice", "assay": "DSS-induced acute colitis in humanized (hu-NOG) mice", "assay_type": "in vivo, mouse (hu-NOG)", "experimental": "The experiments were carried out with the NOD/Shi-scid/IL-2Rγnull immunodeficient mouse strain (NOG) engrafted with CD34+ hematopoietic stem cells isolated from human cord blood as described in Manfroi B et al. (Cancer Res. 2017; 77:1097-1107). The reconstitution of the human immune system in the mice occurred for at least 14 weeks, and hu-mice were used that had at least 25% human CD45+/total CD45 cells. Female hu-NOG mice were randomised into 3 groups (n=10) taking into account the humanization rate and the CD34+ cell donors. All animal studies described in this study have been reviewed and approved by the local ethic committee (CELEAG). Mice were allowed to acclimate to the experimental environment for 5 days prior to the beginning of the experiment. The DSS was administrated for 7 days, from day 2 to 8. The DSS (3%) was added to the drinking water (ad libitum) and freshly renewed every two days.\nAll treatments started before the DSS-induced colitis. 3B04 variant 16 (5 mg/kg) and the isotype control and anti-TNF (Humira) antibodies (10 mg/kg) were administrated i.p. on days 0, 3, 6, 9. The experiment was terminated on day 12. The following parameters were recorded daily for 12 days: body weight in grams (g); diarrhea and stool consistency; bleeding and mortality. The global clinical score was calculated as follows: […]"}, "[4]": {"system": "CMV stimulated human PBMC", "assay": "Human PBMC antigen specific (CMV) recall response in vitro, cytokines by Luminex", "assay_type": "cell-based", "conditions": "CMV stimulation, 5 day incubation", "experimental": "In order to test the efficacy of anti-LIGHT mAbs on stimulated PBMC a recall antigen CMV (cytomegalovirus) lysate was utilised to stimulate PBMC from human CMV-positive donors (ImmunXperts, Belgium). 200 000 cells per well in RPMI (Thermofisher cat. no. 11875) plus 10% FBS (GIBCO) was added to CMV lysate (Serion immunologics cat. no. BA109VS, final concentration 10 ug/ml) with test mAbs in a volume of 200 ul. After a 5 day incubation at 37C and 5% CO2 the media was recovered by centrifugation and assayed for cytokines by Luminex immunoassay (ThermoFisher)."}}, "data": [{"molecule": "B1", "values": [{"measurement": "Inhibition of DcR3 binding to membrane LIGHT", "setting": "[1]", "result": "only partially inhibit"}]}, {"molecule": "B2", "values": [{"measurement": "Inhibition of DcR3 binding to membrane LIGHT", "setting": "[1]", "result": "only partially inhibit"}]}, {"molecule": "B3", "values": [{"measurement": "Inhibition of DcR3 binding to membrane LIGHT", "setting": "[1]", "result": "only partially inhibit"}]}, {"molecule": "B4", "values": [{"measurement": "Binding to LIGHT alanine substitution constructs versus WT LIGHT", "setting": "[2]; single substitutions F57A to E86A and four amino acid substitutions 60-63 to 96-99", "result": "no difference in binding"}, {"measurement": "Binding to LIGHT amino acid substitution constructs versus WT LIGHT", "setting": "[2]; substitutions G188A to V207A", "result": "no difference in binding"}]}, {"molecule": "B5", "values": [{"measurement": "Effect on global clinical score compared to the anti-TNF positive control", "setting": "[3]; 3B04 variant 16 5 mg/kg, Humira 10 mg/kg", "result": "significantly superior (p<0.05)"}, {"measurement": "Global clinical score", "setting": "[3]; i.p. days 0, 3, 6, 9, versus IgG control, FIG. 9", "result": "significant (p<0.05) decrease in global clinical score as early as day 2"}, {"measurement": "IL-17 production from PBMC", "setting": "[4]; FIG. 11A", "result": "significantly (p<0.05) inhibited"}, {"measurement": "IFN gamma production from PBMC", "setting": "[4]; FIG. 11B", "result": "significantly (p<0.05) inhibited"}, {"measurement": "TNF production from PBMC", "setting": "[4]; FIG. 11C", "result": "significantly (p<0.05) inhibited"}, {"measurement": "IL-6 production from PBMC", "setting": "[4]; FIG. 11D", "result": "significantly (p<0.05) inhibited"}, {"measurement": "IL-12p70 production from PBMC", "setting": "[4]; FIG. 11E", "result": "significantly (p<0.05) inhibited"}]}]}
